# Measured values taken from the DeepSol protein solubility set.
# Test: soluble on expression in E. coli; label from the status in PepcDB or PDB records
row,Sequence,soluble on expression in E. coli
1,MGSDKIHHHHHHQAIAPAPADPAAALMPSPWSGSSGELGYASAHGNSTTDSLNGRIRLRYTDGDWIHSLDATALRSSSEYTNTNDDGSVTRERQTTAERYTGSAGSALQLGEHRQLTATGRYEHDDFATYDRLATFGIGYGTRLIDADRFYLDAQIGPGIRRAHNSDDDRNETGLIGRGLFDLKYTVTDNTDLINTLLVESGEYNTYAQNDFGVQVSMNSHFALKAAWQMRHNSDVSEGDKKTDTLTTVNLVYTFK,not soluble
2,MKFDPQKYRELAEKDFEAAWKAGKEILAERSPNELYPRVGFSFGKEHPLFATIQRLREAYLSIGFSEVVNPLIVEDVHVKKQFGREALAVLDRCFYLATLPKPNVGISAEKIRQIEAITKREVDSKPLQEIFHRYKKGEIDGDDLSYLIAEVLDVDDITAVKILDEVFPEFKELKPISSTLTLRSHMTTGWFITLSHIADKLPLPIKLFSIDRCFRREQGEDATRLYTYFSASCVLVDEELSVDDGKAVAEALLRQFGFENFRFRKDEKRSKYYIPDTQTEVFAFHPKLVGSSTKYSDGWIEIATFGIYSPTALAEYDIPYPVMNLGLGVERLAMILYGYDDVRKMVYPQIHGEIKLSDLDIAREIKVKEVPQTAVGLKIAQSIVETAEKHASEPSPCSFLAFEGEMMGRNVRVYVVNENENTKLCGPAYANEVVVYKGDIYGIPKTKKWRSFFEEGVPTGIRYIDGFAYYAARKVEEAAMREQEEVKVKARIVENLSDINLYIHENVRRYILWKKGKIDVRGPLFVTVKAEIE,soluble
3,MAELACFVSFSLTEDKVVWYPINKKAVQTMLCAKVEKDQRSNYYDTILYGVAPPPEFRNRFKTNERYGLDYESDQYTELVNLLADTLNMVSMPTEKFQFDIVKTVVQVRHLENLLCRIKDVNDILNANVKLRVKAVMIACNLVNETETTPLTESNDIVYQDSYFTITKLDYSNHKLLPLMADEYKITINTKTDIPDRNQTAFAAYIRYNFNKFAAISHGKRHWRLVLHSQLMSHAERLDRKIKSDKKHGRQFSYDDGDMAFVHPGWKTCIGQLCGGTTFEVAKTSLYSIKPSKTVRTATNKIESDLISMVGN,soluble
4,MDGFGSHPRTLAVDQWMDIVNGKGYGVGGTTQVYSTRPDSPKFQPSIPPPPGSTSKTRTTATPWRLIDAETKRKKRIATYKTYALEGKVKSTVKKGFHWIKDRYSHIIHG,soluble
5,MEIDWLNAIPDSEDSEEDEEERQERARLLKEKEEEREACKKRYLERIEREEAQRFGKQFKIDPLTFAERLERKLIPAEKKQRYREFIPCVVDHFGGTDVHFVKAMESIKTENQLLDFLTAAHKPLIEQTEDSVLHDWLAEFYKETVTSLLEMTSITDHDLKCFKVGNVFDEVRTNAIQKKVQKMEMENFAERVREAKIKEAEERKATAEATRDVLESLEGMTLSHVKHDELEDELNTIALEELHSTTRDTSPPRTRLSTRAQSQLNAMVKHLFVPAAPTTSTEVPMEMDKDDDEMDAYDDSDLKILFSSTTKESLKMEMGEENDECNFEPSQVSKYPSFQASSQFDETRRYDYDEEGDNKELARLRRPTWRKILNYEKRIGTNFHRFTNAENANLWRRNLYEDKRKKTSKVQFVDYDSPLNKMRLFVRPNEQFFNADDGPMTDRIDFSLSDGFNVLATRKIMSPLVCGSNYDCEFMARTREGPQYLVRKTQSWMHSYCGNILGRFWYLRDRHADKYPGVKDSNYDQKRRQNFGLLRYYTLEELIEVFGLLLPDVQIAMRRGVRRENMPVSTVVKLKEKDREAVESPVQGVLLLTDWRLVHLFDNTAIVNAIIHYFPTNLGGVFFEAMTEYLTELLLDNTIEFHTIIFAFGGTPTFKKQDFLAFWKKLIVRTTQSIDVFWMAQDWCDGLNSTQEEIDQLNEFNHYVEQMFTMMRKNGNINYNYCDIRKQYNIPSLDPSFNRPNDFLLLEPIYRAYINHFVDECNCYLKGPFVKCQPRVHNGYAQRNGTKLEFSK,soluble
6,MGYLNNVTGYREDLLANRAIVKHGNFALLTPDGLVKNIIPGFENCDATILSTPKLGASFVDYLVTLHQNGGNQQGFGGEGIETFLYVISGNITAKAEGKTFALSEGGYLYCPPGSLMTFVNAQAEDSQIFLYKRRYVPVEGYAPWLVSGNASELERIHYEGMDDVILLDFLPKELGFDMNMHILSFAPGASHGYIETHVQEHGAYILSGQGVYNLDNNWIPVKKGDYIFMGAYSLQAGYGVGRGEAFSYIYSKDCNRDVEILEHHHHHH,not soluble
7,MGSDKIHHHHHHMKKLFVLFLAVLSVLVLAEVKNPDTIIDATIGEPDTLDPHFAYDTASGEVIYNVYENLIAYKGESLTEFEPRLAERWEILDDGKTYKFYIRKGVKFHEGGDLTPEDVEYSFERGLIFDPTAGPMWMLWEALFGVDSLETFVEEKIGKPYSELFDENGEPLPEYRDALIKIYTDYIDPAIEVEGDAVVFHLVRPFAPFMYILAQSASWSAVLDKEWCIEIGCWDGRADTWWKYHDIRKEDSPLYARMNGTGPFKFVEWDRAQQKVILERNDNYWREPAKIKRVIIWGIDEWSTRRAMFLQGDADICAVPTQYLEQVEGKPGVTVVKGLPELAVTSLHFAWNVPEDSKYIGSGKLDGNGIPPDFFSDENVRKAFIYAFDYDTFINEVLKGLGRKIPTDLPEGLLGFNEELLNDPDAPHFDIVKATEYFKKAWNGEVWKKGFKITLLYNTGNEVRRQAAEMLKAYIEMINPKFKVEVRGVQWPTYLDATKRGEVPAFIIGWLADYPDPHNFIFTYYHSAGVYSGRQGENFRKFVSTPHPDLGGRSLDELIEEAIAKTDPAERQALYEEIQRFAMKHALGMPLYQPLGVRVQRSWVKGWYHNPMRPGDDYYVLWKAEE,not soluble
8,MRLGICSHTLCPPIEGNIKQHLHNPMKEEEFNELKQNLDSYTPLLPESVTDYFMEKAGVVTSDQSVKKLVSLLAHKFVTDIAVSSFQYHRINQKAAQKDKRFAKEKKPTFQLVDLEKALEEVGISISRPHYYM,not soluble
9,MDEKIAPHLEELTRALGDLEKTGIRAEFYKLLAFRVSPEVAKETILRKFGGKRKILKVKDLSASLKNFEITGRILDMGEKALRPQEGVQDGPSKLYTGILADETGSVMFSSWKELPGSIGDVINIKNAYTRLWQNRIRLSIGEQSLVSGVSDSSLPGLSELSKTPLKKLIEIGSADFSVSTTACVLQLSHREVPVRGKQSKVISGVLADETARLPFTAWVELPGIDIGSIIRIEGAQIRMFRGMPSINFISSTRISPVPAEEAEKLAFTFESSSKDPSPIKIEEIASRDSMFDVVTAGNIVSVRPGSGIISRCPECSRVIQKSNCRVHGRVEGIRDMRIKAVLDDGTGAMSVMFPRELAEIIYGKTLEEAEQLMFSDISKDAVYEDLRRFLTGRYLAVRGNSSNGEYGASFVAENAWVPEDDLAVRVVELLRRLGPDEGEQSSEVSREGISFALEHHHHHH,soluble
10,MGSDKIHHHHHHMKKGIQLVALLLTVVMSSCTGGKDKAAVKQEDEKPRVKVADVTARPVDQIQDYTATVEAEVKNNIAPSSPVRIDRILVEVGDRVSKGQKLVQMDAANLTQTKLQLDNQKIEFNRIDELYKVGGASKSEWDAAKMQLDVKQTAYDNLVENTFLLSPINGVITARNYDNGDMYSGGSPVLVVEQITPVKLMINVSETYFTKVKKGEPVDVKLDVYGDELFKGTISLIYPTIDATTRTFQIEIKLDNKDQRVRPGMFARATLNFGTADNVVVPDLAIVKQAGSGDRYVYVYKDGKVSYNKVELGRRMGSEYELKSGVPDNSQVVVAGQARLINGTEVEIEK,not soluble
11,MNKKSVGQPPEGLHETKSLASALPEKNAEQRPKYVQIVALPSEIKSRELPIAPDNVVYFNGPTHYLSALYPCTVVVDGNEYNSVEHYYQACKLYVLTGEQSAAQLKASETPIEVKKATKNILKEAKIPAKKISAWKDKDSIAVLKHVIYHKFNQNDELKVKLLDTGDKILIQTYIGDTYFAAGANAKYTSTWVDRHVNQSLKYPENVVVDNVQYLPLVANGKNVLGWILMQVRDELRMRSSA,soluble
12,MPKRRYNPSANEEEKIPIVEKLYRENQESDFLGGGFCDDDDEVQERREQISEMRQKREEAAHNLIQAPENCEKCDKGLMDSWLWERYNCAVCDACRDDKGEHKLLARTEVKNTYLLKDCDLDLRKPKLRYWAKKNPHNPRYGDMKLYLKCQIETRVLEVHGSWEDLELKKELREQSKEVRSEKRFEKKLKDLRQQIRGTSGVKVDFGRPHTHEFGKETHVEEDTWRRTCITCEYEEVFEKL,not soluble
